Assay results reported in the nanobody polyreactivity screen of Harvey et al. (2022).

experiment: yeast display, Sf9 membrane polyspecificity reagent, FACS + sequencing; frameworks hold sequencing errors
Summary of the method: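 After 36–48 hours of galactose induction, yeast (Saccharomyces cerevisiae BJ5465) displaying a synthetic nanobody library were stained at 4 °C for 1 hour with 10% biotinylated, detergent-solubilized Sf9 membrane reagent. Streptavidin microbeads enriched the stained cells before FACS sorting into low and high (top ~1%) gates on anti-HA and streptavidin fluorescence. Each clone's polyreactivity label reflects its gate of origin.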

Row | Sequence | polyreactivity (PSR sort gate)
1 | QVQLVESGGGLVHAGGSLRLSCAASGSIFQGYAMGRYRQAPGKERDLVAAITASGGSTYYADSVKGRFTISRDNAKNTVYLQMNSLKPEDTAVYYCATDSYWRQDLYRYEYWGQGTQVTVSA | high polyreactivity
2 | QLQLVESGGGLVQAGGSLRLSCAASGSILTINAMGWYSQAPGKERELVAAITGNGGSTDYADSVKVRFTISRDNAKNTVYLQMNSQKPEDTAVYYCAARVRGTGVYGGYNYWGQGTQVTVSS | high polyreactivity
3 | QVQLVESGGGLVQAGGSLRLSCAASGNIFYPNAMGWYRQAPWKERELVARISWRGVSTYYADSVKGRFTISRDNAKNNVYLQMNSLKPEDTEVYYCNVRPYYGRTRIKYDYWGQGTQVTVSS | high polyreactivity
4 | QVQLVESGGGLVQAGGSLRLSCAASGLTFERYAMGWYRQAPGKERELVAAISIRGGSTYYADSVKGRFTISRDNAKNTVYLQMNSLKPEDTAVYYCSADGRGREYDYWGQGTQVTVSS | low polyreactivity
5 | QVQLVESGGGLVQAGGSLRLSCAASGSTFPLYTMGWYRQAPGKERELVAAINYGGTSTYYADSVKGRFTISRDNAKNTVYLQMNSLKPEDTAVYYCKQFVPGRYYWGQGTQVTVSS | high polyreactivity
6 | QVQLGESGGGLVQAGGSRRFSSAASGSIVKAYAMGWYRPAPGKDRELVAAISTSDGSTYYADSVKGRFTISRDNAKNTVYLQMNSLKPEDTAVYYCATEYDYWDDSYDSWGQGTQVTVSS | low polyreactivity
7 | QVQLVESGGGLVQAGGSLRLSCAASGFILPTYAMGWYRQAPGKERELVAAITRSGGSTYYADSVKGRFTISRDNAKNTVYLQMNSLKPEDTAVYYCAAQRLSASRPYGYWGQGTQVTVSS | high polyreactivity
8 | QVQLVESGGGLVQAGGSLRLSCAASGRTFYPYVMGWYRQAPGKERELVARIRWSGSSTYYADSVKGRFTISRDNAKNTVYLQMNSLKPEDTAVYYCNARPSWYVFGSSVHSGMGYWGQGTQVTVSS | high polyreactivity
9 | QVQLVESGGGLVQAGGSLRLSCAASGFTFWAYAMGWYRQAPGKERELVAPISWSGGITYYADSVKGRFTISRDNAKNTVYLQMNSLKPEDTAVYYCAADPYVLVWVEDYDYWVQGTQVTVSS | high polyreactivity
10 | QVQLVESGGGLVQAGGSLRLSCAASGFIFGYYAMGWYRQAPGKERELVAAISWSGVSTYYADSVKGRFTISSDNAKNTVDLQMNSLKPEDTAVYYCAVGYVLTGVFQARFDYWGQGTQVTVSS | high polyreactivity
11 | QVQLEESGGGLVQAGGSLRLTCAASGRTIVYNAMGWYRQAPGKERELVAAIDGGTGSTYYADSVKGRFTISRDNAKNTVYLEMNCLKPEDTAVYYCAVETYGGGYPVTYDYWGQGTQVTVSS | low polyreactivity
12 | QVQLVESGGGLVQAGGSLRLSCAASGSIFAFYAKGWYRQAPGKERELVAYITSGGSTYYADSVKGRFTISRDNAKNNVYLQMNSLKPEDTAVYYFNSVYYSALVSGGETTIKRRYYWGQGTQVTVSS | high polyreactivity
13 | QVQHVESGGGLVQAGGSLRLSCAASGGIFRFYAMGWYRQAPGKERELVARITSSGGGTYYADSVKGRFTISRDNAKNTVYLQMNSLKPEDTAVSYCAALVYSSYPAGWYDYWGQGTQVTVSS | high polyreactivity
14 | QVQLVESGGGLVQAGGSLRLSCAASGRIFRRYAMGWYRQAPGTERELVAAITASGGITYYADSVKGRFTISRDNAKNTVYLQMNSLKPEDTAVYYCAARGSSGYDYWGQGTQVTVSS | high polyreactivity
15 | QVQLVESGGGLVQAGGSLRLSCAASGSTFWYNAMGWYRQAPGKERELVAAITQSGTRTYYADSVKGRFTISRDNAKNTVYLQMNSLKPEDTAVYYCAARGREWYYWGQGTQVTVSS | high polyreactivity
16 | QVQLVESGGGLVQAGGSLRLSCAASGSTFAYYAMGWYRQAPGKERELVARIRSSGVSTYYADSVKGRFTISRDNAKNTVYLQMNSLKPEDTAVYYCNKAYSGVRYDSWGQGTQVTVSS | low polyreactivity
17 | QVQLQESSGGLVQAGGSLRMSCAASGTIFNFHIMGWYRQAPGKEREFVAAISYGTSTYYADSVKGRFTISRDNAKNTVYLQMNSQKPEDTAVYYCAVFDYLEVYCWYWGQGTQVTVSS | low polyreactivity
18 | QVQLVESGGGLVQAGGSLRLTCAASGRIFSSYAMGWYRQAPGKERELVAAITGRDGSTYYADSVKGRFTISRDNAKNTVYLQMNSLKPEETAVYYCAASRFYFPLTFGGYPKLASYDYWGQGTQVTVSS | low polyreactivity
19 | QVQLVESGGGLVQAGGSLRLSCAASGRTFYPYVMRWYRQAPGKERELVAAITNRGGSTYYADSVKGRFTISRDNAKKTVYLQMNSLKPEDTAVYYCAKRQVGVGHYDHWGQGTQVTVSS | low polyreactivity
20 | QVQLVESGGGLVQAGGSLRLSCAASGRIFIRNDMGWYRQAPGKERELVAVITRSGGRTYYADSVKGRFTISRDNAMNTVYLQMNSLKPEDTAVYYCAKRQAFKQAPYEYWGQGSQVTVSS | low polyreactivity
21 | QVQLVESGGGLVQAGGSLRLSCAASGRTFYKNAMGWYRQAPGKERELVARISRGGSTNYADSVKGRFTISRDNAKNTVYLQMNSLKPEDTAVYYCAKEYGTHGKTYDYWGQGTQVTVSS | high polyreactivity

Row | Sequence | polyreactivity (PSR sort gate)
22 | QDQLVESGGGLVQAGGSLRLSCAASVSTFILNAMGWYRQAPGKERELVATISSSDTSTYYADSVKGRFTISRDNAKNTVYLQMNSLKPEDTAVYYCNADYYTTSYLQRVYHYGVEYDYWGQGTQVTVSS | low polyreactivity
23 | QVKHVESGGGLVQAGGSLRLTCAASGRTFDRYARGWCRQAPGKDRQLVASISWTGGSPYYADSVKGRFTISRDNAKNTVYLQMNSLKPEVTAVYYCAVRFDYWGQGTQVTVSS | low polyreactivity
24 | QVQLVETGGGLLQAGGSLRLSCAASGFTFDFYAMGWYRQAPGKERELVAAINWSGSSTYYADSVKGRFTISRDNAKNTVYLQMNSLKPEDTAVYYCAAQVYYTLFPDVYTMYYWGQGTQVTVSS | high polyreactivity
25 | QVQLVESGGGLVQAGGSLRLSCAASGRTFHVYAMGWYRQAPGKERELVAAITWSGDSTYYADSVKGRFTISRDNAKNTVYLQMNSLNTEDTAVYYCAASKFWKYDYWGQGTQVTVSS | low polyreactivity
26 | QVQLVESGGGLVQAGGSLRLSCAASGSIFGAYAMGWYRQAPGKERELVAAITWRGGSTYYADSVKGRFTISRDNAKNTVYLQMNSLNPEDTAVYYCATDTWGSYYDDDDYWGQGTEVTVSS | high polyreactivity
27 | QVQLVESGGGLVQAGGSLRLSCAASGRIFIDNAMGWYRQAPGKERELVAAISWTGGRTYYADSVKGRFTISRDNAKKTVYLQMNSLKPEDPAVYYCAAKQYTRFGYYYWGQGSQVTVSS | high polyreactivity
28 | QVQLVESGGGLVQAGGSLRLSCAASGRIFDEYAMGWYRQAPGKERELVAAITSDGTTNYADSVKGRFTISRDNAKNTVYLQMNSLKPEDTAVYYCNAARPQSEPASQLDLYGYDYWGQGTQVTVSS | low polyreactivity
29 | QVQLVESGGGLVQAGGSLRLSCAASGSTFSPYAMGWYRHAPGKERELVAAITSGGGSTYYADSVKGRFTISRDNAKNTVYLQMNSLKPEDTAVYYCNAYLYYLGGPYDYWGQGTQVTVSS | high polyreactivity
30 | QVQLVESAGGLVQAGGSLRLSCAASGFTFGWYAMGWYRQAPGKERELVAAISSTGGRTYYADSVKGRFTISRDNAKNTVYLQMNSLKPEDTAVYYCAAAYSYGTEYGYWGQGTQVTVSS | high polyreactivity
31 | QVQLVESGGGLVQAGGSLRLSCAASGSTFVIKAMGWYRQAPGKERELVAAITSGGDTNYADSVKGRFTISRDNSKYTVYLQMNSLKPEDTALYYCNARDGGQGNYSARYDYWGHGTQVTVSS | low polyreactivity
32 | QVQLVESGGGLVQAGGSLRLSCAAYGRTFGPNVMGWYRQAPGKERELVAVITSSGGRTYYADSVKGRFTISRDNAKNTVFLQMNSLKPEDTAVYSCAADAKKFVGTKNAEHVYWGQGTQVTVSS | low polyreactivity
33 | QVQLVESGGGLVQAGGSLRLSCAASGITFVYYAMGWYRQAPGKERELVAAISKNGGSTYYADSVKGRFTISRDNAKNTVYLQMNSLKPEDTAVYYCAAEEGYRWVRYNYWGQGTQVTVSS | high polyreactivity
34 | QVQLVESGGGLVQAGGSLRLSCAASGRIFVVNAMGWYRQAPGKERELVATITRGASTYADSVKGRFTISRDNAKNTVYLQMNSLKPEDTAVYYCAARSGSWGQGTQVTVSS | high polyreactivity
35 | QVQLVESGGGLVQAGGSLRLSCAASGRIFEDNGMGWYRQAPGKEREFVATISWDGDRTYYADSVKGRFTISRDNAKNTVYLQMNSLKPEDTAVYYCNADLPLWPVRGYEYWGQGTQVTVSS | low polyreactivity
36 | QVQLVESGGGLVQAGGSLRLSCAASGRIFVRNAMGWYRQAPGKERELVADITNGGSTNYADSVKGRFTISRDNAKNTVYLQMNSLKPEYTAVYYCAADTLGVYDGDYWGQGTQVTVSS | low polyreactivity
37 | QVQLVESGVGLVQAGGSLRLSCAASGSTFRYYGMGWYRQAPGKEMELVAAISSSGGSTYYADSLKGRFTISRDNAKNTVSLQMNSLKPEDTAVYYCAAGSRFVSSRLYYWGQGTQVTVSS | high polyreactivity
38 | QVQLVESGGGLVQAGGSLRLSCAASGSTFSYYPMGWYREAPGQERELVAAISSRGSSTYYADSVKGRFTISRDNAKNTVYLQMNSLKPEDTAVYYCNAERVVYKWYDYWGQVTQVTVSS | high polyreactivity
39 | QVQLVESGGGLVQAGGSLRLSCAASGSISAQNAMGRYRQAPGKERELVATINSGGRTNYADSVKGRFTISRDNAKNTVYLQMNSLNPEDTAVYYCNTVVRGAYTYGDVSKYDYWGQGNQVTVSS | low polyreactivity
40 | QVQLVESGGGLVQAGGSLRLSCAASGSIFYYNAMGWYRQAPGKERELVAAITRSGGRTYYADSVKGRFTISRDNAKTTVYLQMNSLKPEDTAVYSCAARSAGPVTTLKYYYWGHGTQVTVSS | high polyreactivity
41 | QVQLVESGGGLVQAVGSLRLSCAPSGSTFFKYARGWYRQAPGKERELVAVITRSGGTTYYADSVKGRFTISRDNAKNTVYLLMNSLKPEDTAVYYCAAGYYQYHRGYPTFTRYDYWGQGTQVTVSS | high polyreactivity
